From the DeepSol protein solubility set come the findings set out here.

The nature of this series: soluble on expression in E. coli; label from the status in PepcDB or PDB records.
As to “MSEDWPQHFPPRGTVPDAEVYDQFISASTLQWWYVNAHLTVKGEDNSSLAFFASFFRQAGDNCPTAATKYYDACVWALIDLKNKKCYAESALDPESIDQLKLRLDPAVMGRKLEHVEVALLELLNKGRVPRPDRLLKRKAVYTQHPFSIALDDSCVMTIAQEGSARRYTFSLTNAADDVHVEVCLETQQQPVLHGKDGCVNGMYYYYFPSMSVTGYVVVKGLKREVTGLGWYDREVGGSTAEVDREAKYTWSWLSLHASNMSQLSIFYISGNAEDEGKERVIVETRADGSRHYHDDLIMETNKSWSSLVTFMQYPSEFRLCSASMGLDVTIHTAFDAQEIGTVLVGGAGFYEGVVEGSGVCSGDAVTLRGFFEYKKNAAPYRNTSELLKYVGSYVHGALEEIYPLAASDSWLSENVLGRYAMDRGAPADKICETLFRPVRSIIDRGGKSWRSLILVSCCNALSRQYFDCRRYIAVAELLHVGSLIIDDIQDNSVVRRGGKCVHVEYGVATAINAGSACYFMGPRAARIQDLPPEKASRIYQLYFDVLLAGHAGQGLDIYRLDYLMPKVVETGDASTLFDALDAIHTYKTGGAVGALCSMACVLCEAPTVLSEAVERFGLALGLAFQIVDDALNIRGFEENLKEEAEDIKDGKITYPTAIAMGRLEAADRQTLWAILRKPTKEAADIQQAVELIMKVDATSECFLIARHRLQEMWNALDPLLEDSFPKLLMRTFCSFLVERKY”, the “soluble on expression in E. coli” value is “soluble”.

With “MKQSIVSLAQVIRSKNAGPYELVLDILFKTKENYERVKSSGQLTPELIARLYHVEPDFIHRIVWFDPSNAVKIVMPRDIISGNVGDNDVYGAQQHAPLLNMSFDL”, the “soluble on expression in E. coli” value was “soluble”.

With “MDHIVLTHVFNGGSAESAALCPQDKIIALDGYACTDFAAQWARYHVRAKINIHFFRAGILRQTVLTVQATALEHHHHHH”, the “soluble on expression in E. coli” value is on record as “not soluble”.

In the case of “MIITDDHMHLYNHLKLKALEQFRDAGGTHVFLVNLLCHHYGIRPTSGKDFREVFERHLSLVEKANKIVKAYAVLGVHPAEITVIGDRIGHEKAAEMMKEALEIAGKYVEEGKAVALKSGRPHYPVSRHVWQLSNDVLRHAFEVAKDVGCAIQLHTESYTKEGMLEIAKMADEVGLKREKVVKHFSPPLIKEFEEIGIFPSVLAGNNNVLKAAEQGNRFTVETDYIDDRKRPGAVLGPKTVPRKVKELIELGYEDIAYKICVENVEKVYGV”, the “soluble on expression in E. coli” value is given as “not soluble”.

Regarding “MSLGTMSTEATLLERCQSQCELCAASTPLSPFVVAPHALVTVDHAVMLCDTCKGQIENPETVDMNHWRCLNDSMWSQVQPVQVLAWRQLKRISETEGWARDLLDMMYLDEETAKWAEIGMDDDAEKPRDVNGVELKKGDDVTVIKDLPVKGSSMVIKQGTAVRGIALTEDPKHIQGKVNGQTMYIIAEYCRKKEGGSHHHHHH”, the “soluble on expression in E. coli” value was “soluble”.

With “MGSDKIHHHHHHMERAAFGKLVQALRREHRDEKGRVWTQEVLAERTQLPKRTIERIENGSLAHLDADILLRLADALELTIGERREFFFAATGIIEQKSATYKRSPEESLQYLIDMIRNMNVPAFVTDQYVNIIAANMITIRFFNIPMELIETAPLLPHGYNLMRVVFGTEYDFRRVVGTMWDEVARHNMQLFRAISLRVRADGYFVELLDNLMQYREFKRFWERAHLETEDTSAENFWYQYTHPVYGLLSYVSSRSQIPTSMGLLSMHTYIPLSPATTDLFAKLSTVANQDVIRLAPWPRSNG”, the “soluble on expression in E. coli” value is “not soluble”.

In the case of “MAHHHHHHMLRSPQPRFPQHVPGAYPPQQQQQMPPQPQSQPQMPMNAQPPAQAIQQQLEHQDVVHDTQFDYYGQLLATASSDRTIGIHVVQNGQLQRIATLTGHEGPVWMVSWAHPRFGMALASAGYDHKAIIWKEMSQSSKQWAPVHVIDCHHGSVNAVQWAPETPMVATASSDGTVAVTVFEGGVWRDSLKLSNNSNNIAHAMGATSVSFAPMRPSLGGAVLLASGGCDSQVRLWCLQEGSPMANSFELLEVLEGHTDWVRDVAFAPLCAATRHAVLASCGQDKSVIIHRKPWDQLGALIQERQRSSSTNGPQQYLQKESGGIWERSVVLFEEPVWRLSWSPAEEVLVVTTGDSEVYILRENGEFTQPWLKTPLSEYQSGTR”, the “soluble on expression in E. coli” value is recorded as “not soluble”.

Regarding “MGSDKIHHHHHHMNKGVPLKTRAEVNAFNGSKMLKVIGLDEFVSNGICDNRHCLLLPNYNPNQRELLSLDWGAVAIQCGGIPSNLTIPVISKLEHPEVISTGDVIVLNENRVDILYRRKSTANLLFVTERCNHQCIMCSQPPKVLDDGWHFEECHQLLELIDRDIPVLGISGGEPTLQRDGFLKLLEHAKKALPSTQLHILTNGSAFEEYLYVEQIIQLGHQQIVWGIPIYGSTPQQHDYHTQVLGSFNKTMHGLYNLGHVGAQIELRVVLTRPIIENIVELSEFIARNLPFVSTVALMGLEPTGFARTNYEAVWCDLNDYQEELLEGTHVLLSSGLDTVLYNIPRCHVPKSLRSIAVQSISDWKNSTRKECEYCEEQNLCCGFFKSHTQRFSEQNVKPIQLERRSENVVRT”, the “soluble on expression in E. coli” value is on record as “not soluble”.

On to “MGSDKIHHHHHHMREDIVVIGGYGQVGRAICRLLARRYAGRVYAAGRNFEKANRFSLETDGEVQPLQVDIHQPKKAFEALNQPKVVIVCIDQDHTEFARLCAKNGIDYLDITANGKFLKELGGLNRGAVKHTGVISVGLAPGITNLLVEQAVRMFEQVHQVDISILLGLGDEHGVGAMEWTFQQINQSFDVMVQNDWRQVKSFTDRKQVSFGKAIGNHSVYRFPFSDQQTLARTLHLPTVSTRLCFDSRLVTAVVATMRRLHITKLLSLPAVRKVLTTLLNVFPYGSEQYGVRVEVKGVRKDEKEEVYSLFTGENEALMTAHVASAVAFALYEHPCPKGVFHIEELFELVFIDQHISLTLKGTEFSYPLPTPKQFVQNETSICSQNHS”, for which the “soluble on expression in E. coli” value was “not soluble”.

Turning to “MSLNKSTVDYQNAKILMDNFYSSREININGDNVTIVINDIMYIPSIDELEIKNGDKNLIIKFDRDGNKVKYKDIECIEYLNLKKGEEISLFNKSYIVEDITSNYVILKEKDGKEVLTNESFEYDGYKVVVKLVSSDLNTIIVDIYKNEKVLDSPKLTKGKIYYMKGGTLGLMYENCTRIGKGYRFTFRVYSTIKIEEGEDYPLDKEFKVKEISTDKIKLEYKNIDSLGNEIYLFNYTIIPEKCYKDYVLFKVIKRKEKTVDVKDVAYIGDGIYAVKVNNTVHVFYKGKELKNHEKIYLGSVDVYSSNPLNVNKDIILIGGPKVNKIVKELEDKGLLKVNISTNYPGNNRGIILKIKNPYNDNNIYILAGSDRWGTKAAILVFLTKYNDEDTLMVEWDKGEIKIIKEGHHHHHH”, the “soluble on expression in E. coli” value is recorded as “soluble”.

Regarding “SIHYTWQNALLDVSERLGVANNSVTLLQQKQANYVRAFADSYDFRTRINQGTPQDELQKWVTEQKKRYSLDFLSFQRVNSMENKFRFMDLTKRESFFDVLNREELEQLDPELAKRAEVPILADGGMEARGLVSRTVIPVYSQANDLIGFLDGGLLLNNSTVLVDQIRDLIYLSDNDRLRPVGTLTVFLDDLRVSTNVPLDSDHRLGRAIGTRVSAEVYNQVLSKGQQWVDRAYVYDAWYITAYQPIKDQYDNVIGMLYTGYLMWPFVKAYMTNIAE”, the “soluble on expression in E. coli” value is “not soluble”.

Consider “MISKRNTPQRRHAILALLSEQGEVSVDALAKRFSTSEVTIRKDLAAMESHGLLLRRYGGAVPMPQELIGEAAQPVSPYKQAIGRAAAARIREHARIIIDSGSTTAAMIPELGHKPGLVVMTNSLNVVNALRELEHEPVLLMTGGTWDPHSESFQGQVAEQVLRSYDFDQLFIGADGIDLERGTTTFNELLGLSRVMAEVAREVIVMAEADKVGRRIPNQELPWSSIHTLITDERLESSAREQITARGVTLICTPVEALEHHHHHH”, for which the “soluble on expression in E. coli” value is on record as “not soluble”.

Take “MKPYYVTTAIAYPNAAPHVGHAYEYIATDAIARFKRLDRYDVRFLTGTDEHGLKVAQAAAAAGVPTAALARRNSDVFQRMQEALNISFDRFIRTTDADHHEASKELWRRMSAAGDIYLDNYSGWYSVRDERFFVESETQLVDGTRLTVETGTPVTWTEEQTYFFRLSAYTDKLLAHYHANPDFIAPETRRNEVISFVSGGLDDLSISRTSFDWGVQVPEHPDHVMYVWVDALTNYLTGAGFPDTDSELFRRYWPADLHMIGKDIIRFHAVYWPAFLMSAGIELPRRIFAHGFLHNRGEKMSKSVGNIVDPVALAEALGVDQVRYFLLREVPFGQDGSYSDEAIVTRINTDLANELGNLAQRSLSMVAKNLDGRVPNPGEFADADAALLATADGLLERVRGHFDAQAMHLALEAIWLMLGDANKYFSVQQPWVLRKSESEADQARFRTTLYVTCEVVRIAALLIQPVMPESAGKILDLLGQAPNQRSFAAVGVRLTPGTALPPPTGVFPRYQPPQPPEGK”: the “soluble on expression in E. coli” value is listed as “not soluble”.

On to “MATITDIAKVANVSISTVSRVLNYDPNLSVTEETKRKIFEAAETLNYTKYKTKNKNKQQEQLTPNLSVQTAPQEPSIAVVQWRSDDEELTDIYYMSIRLGAEKRAEELGYNILKVSQLEQHNLQGIDGILAIGKFTQKTLQELQQLHPNLCVIGSNFPLEEFDSVNTDFYQATEIALTHLLELGHEKIAFIGAEESENMYGFRRYKTPTTNAYLDIMQHYHLFNEDYFILKENGMLDVKTGEQLTEEALEKWGNDLPTAILAYNDAFAIGVIHTLAAHGIKVPEEISVMGINDISISQYVSPPLSSVHAFTEEMGETGINLLHKRIQMPSIPRRVLLNTELVVRQSTTSPRQK”, for which the “soluble on expression in E. coli” value was “soluble”.

Regarding “MHADLVIVGAGMVGSALALALEGSGLEVLLVDGGSLDVAPFKPEAPYEPRVSALSEASRRILQRLHAWDGIVARRAEPYREMQVWDGSGTGRIGFSAASVHAEVLGHIVENRVVQDALLERLHDSTTGLLANARLEQMRHSGDDWLLTLADGRQLRAPLVVAADGANSAVRRLAGCATREWDYLHHAIVTSVRCENAHRATAWQRFTDDGPLAFLPLPDRGDEHWCSIVWSTTPEQAERLMALDEDGFRAALGEAFEQRLGAILHADRRLCIPLRQRHAKRYVEPGLALVGDAAHTIHPLAGQGVNLGFLDAAVLSEVLLHALERGERLADERVLSRFERRRMPHNLGMMTAMEGFERLFQADRLPLRWLRNAGLRLVDGHHEAKALFVRQALGLSGDLPMLARVLEHHHHHH”, the “soluble on expression in E. coli” value is given as “soluble”.

For “KSVYLQSPYFIPDNSYINAIKIAAKSGVDVHLMIPCKPDHPLVYWATFSNASDLLSSGVKIYTYENGFIHSKMCLIDDEIVSVGTANMDFRSFELNFEVNAFVYDENLAKDLRVAYEHDITKSKQLTKESYANR”, the “soluble on expression in E. coli” value is listed as “not soluble”.

For “MGSDKIHHHHHHMSDANVSRLGQANLSGDAKALFLKVFSGEVLTAFQESCVTADKHLVRTITSGKSAQFPILGKISAQYHTPGAEIAGLSVPANEQIITIDDLLISHAFIASIDEAMNHYDVRGPYSTEMGRALSYTYDKHILQLGVLAARASAPVSTEAGGGSVTDSALLTDTTGEALVAALFAAAQKLDEKFIPADERYAYLTPAAYYMLAQNTKLMNSLWGGQGSYAKGELPQVAGISLVKAVHAPFGSNIATVANGGTALTAGTSDKYAVDATSTAALVMHKAAVGTVKLMDLAMESDYDIRRQGTLMVAKYAMGHGILRPAAAVELKTA”, the “soluble on expression in E. coli” value was “not soluble”.

With “MIMIFTSSCCDNLSIDEIIERAEKGDCEAQYIVGFYYNRDSAIDSPDDEKAFYWLKLAAEQGHCEAQYSLGQKYTEDKSRHKDNEQAIFWLKKAALQGHTFASNALGWTLDRGEAPNYKEAVVWYQIAAESGMSYAQNNLGWMYRNGNGVAKDYALAFFWYKQAALQGHSDAQNNLADLYEDGKGVAQNKTLAAFWYLKSAQQGNRHAQFQIAWDYNAGEGVDQDYKQAMYWYLKAAAQGSVGAYVNIGYMYKHGQGVEKDYQAAFEWFTKAAECNDATAWYNLAIMYHYGEGRPVDLRQALDLYRKVQSSGTRDVSQEIRETEDLLLEHHHHHH”, the “soluble on expression in E. coli” value was “not soluble”.

As to “MAPAKSPRAWQRMLSGRRLDLLDPSPLDVEIADIAHGLARVARWNGQTRGDHAFTVAQHCLIVETIFCRMCPGATPDEMQMALLHDAPEYVIGDMISPFKSVVGGGYKTVEKRLEAAVHLRFGLPPHASRELKDRIKKADTVAAFFEATELAGFSTAEAQKFFGLPRGITRDMFDIIPLPSTEAQRLFIARFEAIETLRVTRTGGAV”, the “soluble on expression in E. coli” value is recorded as “soluble”.
